According to the DeepSol protein solubility set:

Test: soluble on expression in E. coli; label from the status in PepcDB or PDB records

**Q.** Which “soluble on expression in E. coli” value does the source give for “MAHHHHHHMTVYHEQFALVPPQYPRRAVQEAENHRALAALYELVENAIATAENYVAYTEGRLVPLSSRGSELLAASKELRERYRHEAPCGWTEQKVMQHCEQEVTVEEMAELLLRPPLDVSGIRSILRTLQETRTQLPRGRFLLMRDNLSALKPHQPPDLVRDLSDVCGALYEIQYVDLMAELRAELSELDGERDKVQEKLKDAIHLYERALAKGDVVEVERAHRQLIAARYEFVNACAKLMHQILGEDMASQESGFAAEMEALRRDATDSISRFVEALHERRQAFRNDLHNCDKKRLEEDGNHQKCLEAYNAEERETAAQIGQIVEQKKKLVEELRQKARELRDITLKQKEMVEAQVRAKRAEEERVTAYNEFVNMEEQQKHRLLRCLAYFDGMEELTADLRSYVDEMVTRIPQQNLRQVIDQLNDIEAEAFMNAYSGFVSCCGELTVKKMHRLDTLERQARLLEHNRDSAMESLDPNMSNYRLELDDIIEQMKGVSGVINALNATQDAGEQLFQSVEKGVLAKYERSGTPFVHPLQEYGIKSVEERNRFVDRSMHYVENEERKVFEKRNVLNRMRQAVEEDEAATESAIRNLPAAPEY” here?
**A.** soluble

**Q.** For “MMRDSPSIQGTLDAATQHALLAGRHADPFSVLGPHQAGAHTVVRVLAPGARTVMAVLPGGQRTPLLPMQPGLFENTVPGLQPGAPAAYRLCIEWEGGIQHTADPYAFGPVLD”, which “soluble on expression in E. coli” value is on record?
**A.** not soluble

**Q.** For “MGSDKIHHHHHHMKNYTPIQTETTQNHSKSAGMNNQTEKVLDFDECITFLNKKGKELFGLKFFIDPADYEVVYKILIYIIKDERNAQRHKISLDKGIMLSGPVGCGKTTLMNLMNHIIPVANRYIVRSCRLVSYDFISQGYDAIHKYSYQSFKNNKKVVTPQAWCFDDLGTESSLKYYGNECNVMAEILLSRYDLFIEKDMVTHITTNLVAEEIESFYGVRVRSRMREMFNLISFDRNSKDKRV”, which “soluble on expression in E. coli” value is on record?
**A.** not soluble

**Q.** Which “soluble on expression in E. coli” value does the source give for “MGSDKIHHHHHHMTAPKIIDMQALRIFLAAAKDQNMSIAASKLGLTQSAVSQAIGQLEEQFGIKLLDRNRRPLTLTSAGYVLYERGEQLVSAALNLKGAVLEAGHGVRPAIRLGLVDSVATTCGTSIIKQLMPRVAQLKLQTGLSFDVGAALIDRRVDLAITSEPMHRENGLVRYRVLTEQFVVIFSPGLEVADRENTNLALLSAQLPMIRYRSQSHLGRQAETVLRRADLEIPQFLEVDTADTLTSMVAGGLGWALTTPLCLLQAQEHAKRVGIGFLQSSGDSRSIYLLARGGKFDSLIKDTFDITVSVLKEECLARLAYIHPSLDRHAMMGEWPGIAGHSKTTGARRQPDISSEGIE” here?
**A.** not soluble

**Q.** For “MGSDKIHHHHHHMTEKKIILADEPLKSPDQDKLGFAPFAKRIATVIQSVQLRESIVFAVYGKWGSGKTTFINFLTSYLNHDSSITIVKFDPWWFSEKEDLIRQFLSNLQFTLNKSTKFKDIAKMLKPYIETLGEIPKFGWIFKIASRFKKNLQKSVIETKEEIINRLKEKDGKIVVIIDDIDRLTAKEIRELFTIVKAIADFPNTVYILAFDKDIVIRALEKVQEGKGEDYLEKIIQIPIELPLADKTSIRKMLFEELDAVLSGTSNELFDSTYWRNVYWDGIDPFINTVRNVKRLINTIRVTYPSVKNEVNAVDFIAIETLRVFCPEVYSIVKDYPDMFCGYSGEIYDVSRRHIEFLKQFHQNWLSRLNFPDDLKENIKNLLKRLFPKFESVFENIYYGPDWEREWRKKYRICCKEIFPRFFIFSVPSDDLSKHEMDFILSSLHNKEALIEHLKRLATQIRSDGSTRLSIFLERMEDYASEISQDYIPVVIEVFFTIGDKLIIPEDENKSFLIPWGNDIRMERIIWRLLRRYDNNSKRFEVLKNAFKNGQALFMMVNVLILFWQQHRKYRDAKESDAILLDENHLKTLQEIVLDKIRKAVEEGSLLNTPSLPVILHQWREWANEDEVKEWVKEIVFSDEKLPIFLTKFLQKTVSWTETSRATNIYWQIDLNWLKDFINLDFLEKRCNEILSNDSIIGTLEDKQKLAIRLFLNEKTKSLDSSTEEQGKDG”, which “soluble on expression in E. coli” value is on record?
**A.** not soluble

**Q.** For “MIVERVLYNIKDIDLEKLEVDFVDIEWYEVQKKILRKLSSNGIEVGIRNSNGEALKEGDVLWQEGNKVLVVRIPYCDCIVLKPQNMYEMGKTCYEMGNRHAPLFIDGDELMTPYDEPLMQALIKCGLSPYKKSCKLTTPLGGNLHGYSHSHSH”, which “soluble on expression in E. coli” value is on record?
**A.** not soluble

**Q.** Which “soluble on expression in E. coli” value does the source give for “MAHHHHHHMTAHHALLLGSLVDDVDLSVRRGAQADTLTVDGAADRLLSAIASYTKSAAATDVDVEDNGEAAQETAALSLMAHMQRLSLLCNAARTPETSCTSAGEDNIHKCVDDWAKWLLGLESKPIVLASKVALCLPPLQACWRGGSALDGAGSAHIDRIEEAIGSFFAHAARRCVTEWTTHGAPLRTLLPPLALLTTYARFRWAWSRFTELRHVGGGEHLGEAEGGIAVVGSSDTVQRQENRDIDFLGIAGEVESCHAAKLTREVLLHSLKTIDWRVGSAVPAVKEVAPLFWCVFLRCRSYALHSCSQCRSSSSDFFAHEASARLVAQVLRCTVDGVRLCIERQAADMHVARARQLCTCDIPCLVLLTRLWFSWIALATDAAAVLLPRLERSLRQLVSSVVKLRGGAETKPPPSSVAAALAENSAEASWTEQETLFVEVAWKVAPLSMSEIASATAAVPWTSEFVRASEVQAVLEKRTLVAPVP” here?
**A.** not soluble

**Q.** With “MSLDRGVQWVLMGAPGAWRHVFAERLSKLLEVPHISMGSLVRQELNPRSSLYKEIASAVNERKLVPKSVVFALLSKRLEEGYARGETGFILHGIPRTRFQAETLDQIAQIDLVVNLKCSEDHLVNRNETALPQQEFLGSMLHSPVAINARRESVGVYAQEVEEYYRKQRKLLDFHVGGATSADTWQGLLAALHLKQVNLTTSQKLTEGHHHHHH” as the sequence, how does the “soluble on expression in E. coli” value read?
**A.** not soluble

**Q.** For “MGSDKIHHHHHHMMSRPIILGIVGDSAAGKTTLTRGIAQVLGPENVTLICTDDYHRYDRQQRAEIGITALHPDCNHLDIMQQHLSLLRTGQPILKPVYSHKTGSFEPPQYIKPNKFVIIEGLLGYSTRAARDCYDVKVYLAPPENLRAKWKVKRDTQKRGYTPEQVLAELEKREPDSEQFIRPQRQWSDIVVSFYPPHEDGDETNGHLNVRLVLRPTIPHPDFTSIINLTNGSSVSAIRLGLDRDMSKPVDVLEVDGHATLEQVNKLEHILCSDMPYLSSVCDRESNPELGKIAGTTGETLQSYPLALTQLIITYHMLKATQIYQ”, which “soluble on expression in E. coli” value is on record?
**A.** not soluble

**Q.** With “QIVLTQSPAIMSASPGEKVTMTCSASSSVSYMHWYQQKSGTSPKIWIYESSKLASGVPVRFSGSGSGTSYSLTISSMEAEDVATYYCQQWSSHPHPLTFGAGTKLELKRADAAPTVSIFPPSSEQLTSGGASVVCFLNNFYPKDINVKWKIDGSERQNGVLNSWTDQDSKDSTYSMSSTLTLTKDEYERHNSYTCEATHKTSTSPIVKSFNRNEC” as the sequence, how does the “soluble on expression in E. coli” value read?
**A.** soluble

**Q.** Which “soluble on expression in E. coli” value does the source give for “MGSDKIHHHHHHMIGKFFASINLSDVAAMAGIPISFMTAYSISPEIEISFLEDIESGIMKVLKMYDVDFIGGDLKEGMDLILTGIAIGKQKKTLTRKRSDIGRKQMVAYTNKLGRAASGYIFYKSGYDSVEGINMMLGITPRLEEARIISEYGAKFMMDLSDGLYSSLNQMKADYGVGFKIVEDEVVYDDSARKAAEISGASVYDIACGYGGDYELLFTVPEENYRDFAQAMESNNIEVHFIGETWEGENIVFDGKTWTKMKDEGYEHFRPKPQLGEIR” here?
**A.** not soluble

**Q.** With “VSAETAARIDAESDSMDWPQEVTLGEVLRERFGDDLVDHVVSALQGGVYSSTSDDLSLRDTVPQLARALDRLKEEGKPVTITAAVQSIMADREKRNKARGYKPSVFAAFPGGYAELYEALAEKSGAKIHIDAFITGIQWKDGFTLKGAEGTFDK” as the sequence, how does the “soluble on expression in E. coli” value read?
**A.** not soluble

**Q.** Which “soluble on expression in E. coli” value does the source give for “MSLKKVNVTYALLYDKTKEKILMVKNKGKNGSYYTLPGGAVKLGETLEEAVIREVKEETGLHITVNGICYISEAFFEERGHHAIFFNFLGEIIGGETNITRPKEIEEITWMELHIASPHLRIPEHLVNMLKKKETVPYFFNGTIVHQSSEGHHHHHH” here?
**A.** not soluble

**Q.** For “MAGGGAGDPGLGAAAAPAPETREHLFKVLVIGELGVGKTSIIKRYVHQLFSQHYRATIGVDFALKVLNWDSRTLVRLQLWDIAGQERFGNMTRVYYKEAVGAFVVFDISRSSTFEAVLKWKSDLDSKVHLPNGSPIPAVLLANKCDQNKDSSQSPSQVDQFCKEHGFAGWFETSAKDNINIEEAARFLVEKILVNHQSFPNEENDVDKIKLDQETLRAENKSQCCLEHHHHHH”, which “soluble on expression in E. coli” value is on record?
**A.** not soluble
